Source: patent US11485769B2, “Peptides and combination of peptides for use in immunotherapy and methods for generating scaffolds for the use against pancreatic cancer and other cancers” (Immatics Biotechnologies GmbH, priority 2015, dated 2022)

Biological target: HLA-A*02:01 (Homo sapiens, UniProt P04439, D140Y/D185E/D98H/E176V/E277Q/G131W/G231S/I119V/I121R/I166T/I218V/L300P/L318F/N151K/N90K/P208A/P217A/Q86G/Q94H/R138H/R169H/T345S)
Assay: MHC binding assay (UV-ligand exchange, beta2m ELISA, peptide exchange yield)
Settings: binding to HLA-A*02:01 ranged by peptide exchange yield, β2m ELISA
Excerpt: Candidate peptides for T cell based therapies according to the present invention were further tested for their MHC binding capacity (affinity). The individual peptide-MHC complexes were produced by UV-ligand exchange, where a UV-sensitive peptide is cleaved upon UV-irradiation, and exchanged with the peptide of interest as analyzed. Only peptide candidates that can effectively bind and stabilize the peptide-receptive MHC molecules prevent dissociation of the MHC complexes. To determine the yield of the exchange reaction, an ELISA was performed based on the detection of the light chain (β2m) of stabilized MHC complexes. The assay was performed as generally described in Rodenko et al. (Rodenko et al., 2006).
96 well MAXISorp plates (NUNC) were coated over night with 2 ug/ml streptavidin in PBS at room temperature, washed 4× and blocked for 1 h at 37° C. in 2% BSA containing blocking buffer. Refolded HLA-A*02:01/MLA-001 monomers served as standards, covering the range of 15-500 ng/ml. Peptide-MHC monomers of the UV-exchange reaction were diluted 100 fold in blocking buffer. Samples were incubated for 1 h at 37° C., washed four times, incubated with 2 ug/ml HRP conjugated anti-μ2m for 1h at 37° C., washed again and detected with TMB solution that is stopped with […]. Absorption was measured at 450 nm. Candidate peptides that show a high exchange yield (preferably higher than 50%, most preferred higher than 75%) are generally preferred for a generation and production of antibodies or fragments thereof, and/or T cell receptors or fragments thereof, as they show sufficient avidity to the MHC molecules and prevent dissociation of the MHC complexes.
MHC class I binding scores. Binding of HLA-class I restricted peptides to HLA-A*02:01 was ranged by peptide exchange yield: ≥10%=+; ≥20%=++; ≥50=+++; >75%=++++

111 (LLLAAARLAAA; listed as Homo sapiens) [compound 111]
Peptide exchange (MHC class I binding score): “+++” (≥50=+++)

129 (ALYEKDNTYL; listed as Homo sapiens) [compound 129]
Peptide exchange (MHC class I binding score): “+++” (≥50=+++)

133 (ILDDVSLTHL; listed as Homo sapiens) [compound 133]
Peptide exchange (MHC class I binding score): “++” (≥20%=++)

154 (KVADLVLML; listed as Homo sapiens) [compound 154]
Peptide exchange (MHC class I binding score): “+++” (≥50=+++)

8 (ALYTGSALDFV; listed as Homo sapiens) [compound 8]
Peptide exchange (MHC class I binding score): “+++” (≥50=+++)

16 (GLIDYDTGI; listed as Homo sapiens) [compound 16]
Peptide exchange (MHC class I binding score): “+++” (≥50=+++)

105 (FLSEVFHQA; listed as Homo sapiens) [compound 105]
Peptide exchange (MHC class I binding score): “+++” (≥50=+++)

67 (VIWGTDVNV; listed as Homo sapiens) [compound 67]
Peptide exchange (MHC class I binding score): “++++” (>75%=++++)

86 (GLGDFIFYSV; listed as Homo sapiens) [compound 86]
Peptide exchange (MHC class I binding score): “++++” (>75%=++++)

153 (ALPKEDPTAV; listed as Homo sapiens) [compound 153]
Peptide exchange (MHC class I binding score): “+++” (≥50=+++)

23 (KLDSSGGAVQL; listed as Homo sapiens) [compound 23]
Peptide exchange (MHC class I binding score): “++” (≥20%=++)

84 (FILPIGATV; listed as Homo sapiens) [compound 84]
Peptide exchange (MHC class I binding score): “++++” (>75%=++++)

131 (FLIEEQKIVV; listed as Homo sapiens) [compound 131]
Peptide exchange (MHC class I binding score): “+++” (≥50=+++)

1 (FVDTRTLL; listed as Homo sapiens) [compound 1]
Peptide exchange (MHC class I binding score): “++” (≥20%=++)

161 (YLPDIIKDQKA; listed as Homo sapiens) [compound 161]
Peptide exchange (MHC class I binding score): “+++” (≥50=+++)

91 (LLFNDVQTL; listed as Homo sapiens) [compound 91]
Peptide exchange (MHC class I binding score): “+++” (≥50=+++)

106 (FVWSGTAEA; listed as Homo sapiens) [compound 106]
Peptide exchange (MHC class I binding score): “+++” (≥50=+++)

62 (SVFPGARLL; listed as Homo sapiens) [compound 62]
Peptide exchange (MHC class I binding score): “+” (≥10%=+)

100 (ALFGAGPASI; listed as Homo sapiens) [compound 100]
Peptide exchange (MHC class I binding score): “+++” (≥50=+++)

160 (VLLPDERTISL; listed as Homo sapiens) [compound 160]
Peptide exchange (MHC class I binding score): “++++” (>75%=++++)

73 (VMVDGKPVNL; listed as Homo sapiens) [compound 73]
Peptide exchange (MHC class I binding score): “++++” (>75%=++++)

60 (SLWEDYPHV; listed as Homo sapiens) [compound 60]
Peptide exchange (MHC class I binding score): “++++” (>75%=++++)

61 (SMYDGLLQA; listed as Homo sapiens) [compound 61]
Peptide exchange (MHC class I binding score): “++” (≥20%=++)

5 (ALLTGIISKA; listed as Homo sapiens) [compound 5]
Peptide exchange (MHC class I binding score): “+++” (≥50=+++)

140 (SLLNPPETLNL; listed as Homo sapiens) [compound 140]
Peptide exchange (MHC class I binding score): “+++” (≥50=+++)

141 (SLTEQVHSL; listed as Homo sapiens) [compound 141]
Peptide exchange (MHC class I binding score): “+++” (≥50=+++)

137 (KLGPEGELL; listed as Homo sapiens) [compound 137]
Peptide exchange (MHC class I binding score): “+++” (≥50=+++)

96 (ALAPATGGGSLLL; listed as Homo sapiens) [compound 96]
Peptide exchange (MHC class I binding score): “+++” (≥50=+++)

28 (VLDEFYSSL; listed as Homo sapiens) [compound 28]
Peptide exchange (MHC class I binding score): “+++” (≥50=+++)

71 (VLLPEGGITAI; listed as Homo sapiens) [compound 71]
Peptide exchange (MHC class I binding score): “+++” (≥50=+++)

38 (FLTEAALGDA; listed as Homo sapiens) [compound 38]
Peptide exchange (MHC class I binding score): “+++” (≥50=+++)

158 (SLIEKYFSV; listed as Homo sapiens) [compound 158]
Peptide exchange (MHC class I binding score): “++++” (>75%=++++)

98 (ALDQKVRSV; listed as Homo sapiens) [compound 98]
Peptide exchange (MHC class I binding score): “++” (≥20%=++)

31 (YLDSMYIML; listed as Homo sapiens) [compound 31]
Peptide exchange (MHC class I binding score): “+++” (≥50=+++)
